# Key:
# [1] = biological target: Act88F^WT Drosophila indirect flight muscle (IFM) actin, filamentous (F-Act88F^WT) (Drosophila melanogaster) (UniProt P83967)
# [2] = biological target: Act88F^M305L Drosophila indirect flight muscle (IFM) actin, filamentous (F-Act88F^M305L) (Drosophila melanogaster)
# Sequence of rabbit psoas myosin (Q28641 whole entry, looked up): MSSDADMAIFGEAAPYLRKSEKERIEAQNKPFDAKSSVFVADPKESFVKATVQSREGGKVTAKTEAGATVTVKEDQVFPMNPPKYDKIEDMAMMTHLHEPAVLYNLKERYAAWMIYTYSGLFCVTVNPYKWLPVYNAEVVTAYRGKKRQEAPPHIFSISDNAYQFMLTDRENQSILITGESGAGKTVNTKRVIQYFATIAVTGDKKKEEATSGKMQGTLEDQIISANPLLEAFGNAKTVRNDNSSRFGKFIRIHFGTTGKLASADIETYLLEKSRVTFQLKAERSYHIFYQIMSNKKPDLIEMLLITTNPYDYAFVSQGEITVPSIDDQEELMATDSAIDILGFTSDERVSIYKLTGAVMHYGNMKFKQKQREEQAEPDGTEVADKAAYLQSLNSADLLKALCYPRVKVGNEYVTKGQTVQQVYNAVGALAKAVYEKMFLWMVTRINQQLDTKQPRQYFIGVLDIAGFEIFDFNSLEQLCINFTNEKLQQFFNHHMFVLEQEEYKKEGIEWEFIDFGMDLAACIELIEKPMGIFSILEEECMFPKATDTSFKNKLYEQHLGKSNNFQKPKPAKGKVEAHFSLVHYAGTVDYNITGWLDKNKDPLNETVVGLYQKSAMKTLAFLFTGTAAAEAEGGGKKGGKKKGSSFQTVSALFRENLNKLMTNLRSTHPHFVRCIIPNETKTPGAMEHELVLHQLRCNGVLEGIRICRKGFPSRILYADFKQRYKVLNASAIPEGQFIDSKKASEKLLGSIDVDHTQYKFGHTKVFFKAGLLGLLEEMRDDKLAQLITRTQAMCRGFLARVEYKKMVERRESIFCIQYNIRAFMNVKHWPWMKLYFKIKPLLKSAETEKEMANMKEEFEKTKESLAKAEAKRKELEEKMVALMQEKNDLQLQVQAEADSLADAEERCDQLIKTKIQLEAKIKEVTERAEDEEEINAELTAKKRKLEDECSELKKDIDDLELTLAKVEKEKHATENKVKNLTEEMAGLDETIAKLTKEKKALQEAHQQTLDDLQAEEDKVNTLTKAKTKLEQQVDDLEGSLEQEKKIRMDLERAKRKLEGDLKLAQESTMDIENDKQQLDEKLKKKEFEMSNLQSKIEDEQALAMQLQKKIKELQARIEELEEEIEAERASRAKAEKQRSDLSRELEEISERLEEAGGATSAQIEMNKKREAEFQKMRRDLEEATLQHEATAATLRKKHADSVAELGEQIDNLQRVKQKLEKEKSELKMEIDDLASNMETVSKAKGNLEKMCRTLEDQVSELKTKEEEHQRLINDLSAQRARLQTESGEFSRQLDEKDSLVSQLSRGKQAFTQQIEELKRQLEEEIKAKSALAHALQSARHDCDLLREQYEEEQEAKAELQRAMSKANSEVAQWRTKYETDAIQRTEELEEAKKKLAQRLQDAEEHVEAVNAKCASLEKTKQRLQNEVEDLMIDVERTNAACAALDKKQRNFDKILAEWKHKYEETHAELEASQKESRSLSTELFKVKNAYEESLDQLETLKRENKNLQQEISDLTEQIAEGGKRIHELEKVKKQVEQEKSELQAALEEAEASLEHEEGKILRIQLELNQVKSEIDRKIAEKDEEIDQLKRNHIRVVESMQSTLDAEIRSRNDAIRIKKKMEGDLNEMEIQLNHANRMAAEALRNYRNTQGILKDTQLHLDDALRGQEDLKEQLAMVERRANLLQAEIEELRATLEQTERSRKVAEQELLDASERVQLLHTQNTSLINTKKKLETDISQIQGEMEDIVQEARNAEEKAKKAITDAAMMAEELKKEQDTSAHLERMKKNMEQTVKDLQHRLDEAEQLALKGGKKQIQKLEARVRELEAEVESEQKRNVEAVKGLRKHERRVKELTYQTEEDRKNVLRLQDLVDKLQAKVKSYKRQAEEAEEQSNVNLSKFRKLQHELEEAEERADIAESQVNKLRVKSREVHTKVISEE
# Sequence of porcine cardiac tropomyosin (Tpm) (P42639 whole entry): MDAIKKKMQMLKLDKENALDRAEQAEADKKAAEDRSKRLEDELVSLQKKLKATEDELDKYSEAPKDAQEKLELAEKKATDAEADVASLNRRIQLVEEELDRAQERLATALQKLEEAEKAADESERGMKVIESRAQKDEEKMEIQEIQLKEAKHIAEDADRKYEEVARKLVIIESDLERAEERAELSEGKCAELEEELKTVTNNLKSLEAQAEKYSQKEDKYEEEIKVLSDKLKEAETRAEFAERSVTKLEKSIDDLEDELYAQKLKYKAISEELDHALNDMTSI
"Filaments moving (%) in in vitro motility at 30 °C with 300 nM Tpm, rabbit psoas myosin 12.5 to 100 µg ml^-1 (14.96 to 62.87 %) [1]","Filaments moving (%) in in vitro motility at 30 °C with 300 nM Tpm, rabbit psoas myosin 12.5 to 100 µg ml^-1 (21.17 to 71.16 %) [2]","Filaments moving (%) in in vitro motility at 30 °C without Tpm, rabbit psoas myosin 12.5 to 100 µg ml^-1 (31.02 to 68.11 %) [1]","Filaments moving (%) in in vitro motility at 30 °C without Tpm, rabbit psoas myosin 12.5 to 100 µg ml^-1 (32.57 to 68.00 %) [2]",Substance
62.9%,71.2%,,,porcine cardiac tropomyosin (Tpm) (from UniProt P42639 1-284) (natural protein)
,,68.1%,68%,rabbit psoas myosin (from UniProt Q28641 1-1938) (complex)

# Source: publication PMC7229152
